This note sets out measurements from article PMC10397247.

In one test the target is T1, P7A-bS.
T1 chain: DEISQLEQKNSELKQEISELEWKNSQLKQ
Description: two-hybrid library CCNG1.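 Also: natural log of median RNA to DNA barcode read ratio; higher means stronger binding.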

Another test addresses T2, P8A-bS.
T2 chain: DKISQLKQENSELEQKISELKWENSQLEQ
Description: two-hybrid library CCNG1.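 Also: natural log of median RNA to DNA barcode read ratio; higher means stronger binding.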

The target of the next test is T3, P9A-bS.
T3 chain: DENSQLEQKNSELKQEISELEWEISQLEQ
Description: two-hybrid library CCNG1.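 Also: natural log of median RNA to DNA barcode read ratio; higher means stronger binding.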

Another test has as its target T4, O3.
T4 chain: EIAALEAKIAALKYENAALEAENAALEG
Briefly: two-hybrid library CC0.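 Also: natural log of median RNA to DNA barcode read ratio; higher means stronger binding.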 The settings on record: mean of both orientations.

A further test concerns the target T5, O4.
T5 chain: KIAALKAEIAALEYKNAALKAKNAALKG
Description: two-hybrid library CC0.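 Also: natural log of median RNA to DNA barcode read ratio; higher means stronger binding.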 The settings on record: mean of both orientations.

For another test, the target named is T6, O5.
T6 chain: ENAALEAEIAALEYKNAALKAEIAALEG
Description: two-hybrid library CC0.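 Also: natural log of median RNA to DNA barcode read ratio; higher means stronger binding.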 The note with it: mean of both orientations.

The next test concerns the target T7, O6.
T7 chain: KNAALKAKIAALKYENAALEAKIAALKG
Briefly: two-hybrid library CC0. The note with it: mean of both orientations.

The target in the next test is T8, O7.
T8 chain: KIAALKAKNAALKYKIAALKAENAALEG
Briefly: two-hybrid library CC0. The settings on record: mean of both orientations.

The next test deals with T9, O8.
T9 chain: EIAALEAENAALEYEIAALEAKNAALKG
Description: two-hybrid library CC0. The settings on record: mean of both orientations.

The next test deals with T10, O9.
T10 chain: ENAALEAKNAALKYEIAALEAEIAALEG
Description: two-hybrid library CC0. The settings on record: mean of both orientations.

For a further test, the target named is T11, P8A-bN.
T11 chain: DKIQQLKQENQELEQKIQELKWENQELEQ
Description: two-hybrid library CCNG1.

The next test concerns the target T12, P9A-bN.
T12 chain: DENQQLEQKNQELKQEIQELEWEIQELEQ
Description: two-hybrid library CCNG1.

In another test the target is T13, P9mS.
T13 chain: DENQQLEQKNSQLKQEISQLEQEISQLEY
Description: two-hybrid library CCNG1.

B1: P7A-bS (peptide)
chain: DEISQLEQKNSELKQEISELEWKNSQLKQ
Regarding B1, the interaction score in the test with P7A-bS was -1.32; with P8A-bS, 0.493; with P9A-bS, -0.768.

B2: O3 (peptide)
chain: EIAALEAKIAALKYENAALEAENAALEG
Take B2: the interaction score was -2.75 with O3; 1.48 with O4; -2.78 with O5; -2.66 with O6; -2.77 with O7; -2.58 with O8. Besides, the interaction score with O9 was -2.71.

B3: P8A-bN (peptide)
chain: DKIQQLKQENQELEQKIQELKWENQELEQ
With B3, the interaction score with P8A-bN was -1.84; with P9A-bN, -1.47.

B4: P9mS (peptide)
chain: DENQQLEQKNSQLKQEISQLEQEISQLEY
As for B4, the interaction score in the test with P9mS was -1.32.
